In US20180171024A1:

Assays:
[1] = molecular target: HLA-A2/M1 on T2 cells (human); experiment: flow cytometry, T2 cells loaded with M1 peptide
[2] = molecular target: HLA-A2/GPLD1 on T2 cells (human); experiment: flow cytometry, T2 cells loaded with GPLD1 [..], 10 µg/ml
[3] = molecular target: HLA-A2/P68 on T2 cells (human); experiment: flow cytometry, T2 cells loaded with P68 peptide
[4] = molecular target: HLA-A2/MAGE-A4 230-239 complex on cells (human); experiment: flow cytometry, T2 cells loaded with MAGE-A4 [..], 10 µg/ml
[5] = molecular target: HLA-A2/TyrD-S18 on T2 cells (human); experiment: flow cytometry, T2 cells loaded with TyrD-S18 [..], 10 µg/ml
[6] = molecular target: HLA-A2/TyrD-S5 on T2 cells (human); experiment: flow cytometry, T2 cells loaded with TyrD S5 [..], 10 µg/ml
[7] = molecular target: HLA-A2 on cells (tumor cell lines, normal primary cells, PBMCs) (human); experiment: flow cytometry, DG-75 cells, 10 µg/ml
[8] = molecular target: HLA-A2/TyrD-S4 on T2 cells (human); experiment: flow cytometry, T2 cells loaded with TyrD S4 [..], 10 µg/ml
[9] = molecular target: Unloaded T2 (Homo sapiens); experiment: flow cytometry, unloaded T2 cells
[10] = molecular target: HLA-A2/TyrD-S10 on T2 cells (human); experiment: flow cytometry, T2 cells loaded with TyrD S10 [..], 10 µg/ml
[11] = molecular target: HLA-A2/TyrD-S11 on T2 cells (human); experiment: flow cytometry, T2 cells loaded with TyrD S11 [..], 10 µg/ml
[12] = molecular target: HLA-A2 on cells (tumor cell lines, normal primary cells, PBMCs) (human); experiment: flow cytometry, SW620 cells
[13] = molecular target: HLA-A2/154 on T2 cells (human); experiment: flow cytometry, T2 cells loaded with 154 peptide
[14] = molecular target: HLA-A2 on cells (tumor cell lines, normal primary cells, PBMCs) (human); experiment: flow cytometry, PANC-1 pancreatic carcinoma cells, 10 µg/ml
[15] = molecular target: HLA-A2 on cells (tumor cell lines, normal primary cells, PBMCs) (human); experiment: flow cytometry, Loucy cells
[16] = molecular target: HLA-A2 on cells (tumor cell lines, normal primary cells, PBMCs) (human); experiment: flow cytometry, HEP-G2 cells, 10 µg/ml
[17] = molecular target: HLA-A2 on cells (tumor cell lines, normal primary cells, PBMCs) (human); experiment: flow cytometry, PBMCs #IB, 10 µg/ml

BB7.2 (antibody)
MFI [1]: 1990
MFI relative to background [2]: 364
MFI [3]: 2660
MFI relative to background [4]: 965
MFI relative to background [5]: 838
MFI relative to background [6]: 546
MFI [7]: 700
MFI relative to background [8]: 543
MFI [9]: 290
MFI relative to background [10]: 620
MFI relative to background [11]: 473
GeoMean [12]: 369
MFI [13]: 1920
MFI [14]: 242
GeoMean [15]: 734
MFI [16]: 315
MFI [17]: 552
